Measured values from article PMC3826915 (Nature medicine, 2013).

B2: Recombinant human cold-inducible RNA-binding protein (rhCIRP) (natural protein, UniProt Q14011-1 1-172, looked up)
chain: MASDEGKLFVGGLSFDTNEQSLEQVFSKYGQISEVVVVKDRETQRSRGFGFVTFENIDDAKDAMMAMNGKSVDGRQIRVDQAGKSSDNRSRGYRGGSAGGRGFFRGGRGRGRGFSRGGGDRGYGGNRFESRSGGYGGSRDYYSSRSQSGGYSDRSSGGSYRDSYDSYATHNE

Columns and labels:
TLR4 (Homo sapiens) = TLR4 (Homo sapiens) (UniProt O00206); details: cited from earlier work
MD2 (Homo sapiens) = MD2 (Homo sapiens) (UniProt Q9Y6Y9); details: cited from earlier work
TLR4/MD2 (Homo sapiens) = TLR4/MD2 (Homo sapiens) (UniProt O00206); assay: SPR; details: cited from earlier work
Sequence of TLR4/MD2 (Homo sapiens) (O00206 24-839): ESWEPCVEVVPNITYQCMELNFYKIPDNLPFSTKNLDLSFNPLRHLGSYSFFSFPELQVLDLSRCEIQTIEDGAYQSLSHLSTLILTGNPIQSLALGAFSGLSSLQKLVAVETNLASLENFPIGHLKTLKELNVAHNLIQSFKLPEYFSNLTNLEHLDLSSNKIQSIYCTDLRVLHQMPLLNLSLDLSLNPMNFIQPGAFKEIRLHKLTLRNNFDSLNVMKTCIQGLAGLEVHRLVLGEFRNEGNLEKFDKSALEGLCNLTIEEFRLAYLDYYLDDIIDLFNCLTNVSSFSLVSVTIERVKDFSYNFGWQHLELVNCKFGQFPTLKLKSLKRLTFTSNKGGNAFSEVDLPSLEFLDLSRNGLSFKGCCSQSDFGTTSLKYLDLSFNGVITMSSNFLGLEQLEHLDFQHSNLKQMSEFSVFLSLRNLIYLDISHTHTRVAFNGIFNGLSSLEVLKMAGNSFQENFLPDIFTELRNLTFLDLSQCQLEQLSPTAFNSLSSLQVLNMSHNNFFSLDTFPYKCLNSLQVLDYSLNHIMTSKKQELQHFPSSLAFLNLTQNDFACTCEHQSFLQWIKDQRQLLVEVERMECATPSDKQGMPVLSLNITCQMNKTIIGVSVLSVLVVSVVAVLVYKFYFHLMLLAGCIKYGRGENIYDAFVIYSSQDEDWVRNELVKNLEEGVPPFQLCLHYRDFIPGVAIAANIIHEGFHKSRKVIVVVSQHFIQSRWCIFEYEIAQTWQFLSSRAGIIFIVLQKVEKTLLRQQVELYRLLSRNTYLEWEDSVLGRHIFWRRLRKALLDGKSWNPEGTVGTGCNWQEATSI

[1] = target: B2; assay: SPR
[2] = target: Recombinant human TLR4 (rhTLR4), Glu24-Lys631 (human, UniProt O00206 24-631); assay: SPR
Sequence of Recombinant human TLR4 (rhTLR4), Glu24-Lys631 (O00206 24-631): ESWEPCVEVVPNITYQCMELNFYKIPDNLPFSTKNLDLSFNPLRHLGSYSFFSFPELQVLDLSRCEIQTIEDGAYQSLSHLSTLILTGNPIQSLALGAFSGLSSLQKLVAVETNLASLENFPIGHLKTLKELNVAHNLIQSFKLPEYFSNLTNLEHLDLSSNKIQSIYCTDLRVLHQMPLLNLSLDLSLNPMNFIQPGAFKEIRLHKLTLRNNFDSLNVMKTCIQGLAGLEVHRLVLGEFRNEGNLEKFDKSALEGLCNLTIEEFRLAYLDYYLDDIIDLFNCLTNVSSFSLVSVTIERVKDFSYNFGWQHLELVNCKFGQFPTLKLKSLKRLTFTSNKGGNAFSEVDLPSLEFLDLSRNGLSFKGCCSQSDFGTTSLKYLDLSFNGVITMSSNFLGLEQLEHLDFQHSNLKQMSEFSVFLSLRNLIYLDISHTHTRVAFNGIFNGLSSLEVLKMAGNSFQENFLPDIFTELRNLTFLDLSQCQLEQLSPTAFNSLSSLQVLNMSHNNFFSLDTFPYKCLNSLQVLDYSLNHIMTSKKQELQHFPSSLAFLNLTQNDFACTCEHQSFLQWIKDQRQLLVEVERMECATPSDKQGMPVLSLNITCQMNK

[3] = target: Recombinant human TLR4/MD2 complex (rhTLR4/MD2) (human, UniProt O00206 24-631; Q9Y6Y9 17-160); assay: SPR
Sequence of Recombinant human TLR4/MD2 complex (rhTLR4/MD2) (O00206 24-631, one chain of several): as the sequence (O00206 24-631) above

[4] = target: Recombinant human RAGE (rhRAGE), Ala23-Ala344 (human, UniProt Q15109 23-344); assay: SPR
Sequence of Recombinant human RAGE (rhRAGE), Ala23-Ala344 (Q15109 23-344): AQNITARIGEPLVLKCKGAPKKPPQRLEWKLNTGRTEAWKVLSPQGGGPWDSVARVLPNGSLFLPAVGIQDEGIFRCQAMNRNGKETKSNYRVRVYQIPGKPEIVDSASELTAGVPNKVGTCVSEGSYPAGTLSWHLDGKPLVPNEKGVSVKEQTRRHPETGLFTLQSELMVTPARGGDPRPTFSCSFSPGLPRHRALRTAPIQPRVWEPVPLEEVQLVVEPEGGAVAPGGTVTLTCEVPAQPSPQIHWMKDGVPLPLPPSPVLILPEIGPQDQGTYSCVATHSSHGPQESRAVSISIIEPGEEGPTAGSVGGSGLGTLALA

[5] = target: Recombinant human TLR2 (rhTLR2), Glu21-Leu590 (human, UniProt O60603 21-590); assay: SPR
Sequence of Recombinant human TLR2 (rhTLR2), Glu21-Leu590 (O60603 21-590): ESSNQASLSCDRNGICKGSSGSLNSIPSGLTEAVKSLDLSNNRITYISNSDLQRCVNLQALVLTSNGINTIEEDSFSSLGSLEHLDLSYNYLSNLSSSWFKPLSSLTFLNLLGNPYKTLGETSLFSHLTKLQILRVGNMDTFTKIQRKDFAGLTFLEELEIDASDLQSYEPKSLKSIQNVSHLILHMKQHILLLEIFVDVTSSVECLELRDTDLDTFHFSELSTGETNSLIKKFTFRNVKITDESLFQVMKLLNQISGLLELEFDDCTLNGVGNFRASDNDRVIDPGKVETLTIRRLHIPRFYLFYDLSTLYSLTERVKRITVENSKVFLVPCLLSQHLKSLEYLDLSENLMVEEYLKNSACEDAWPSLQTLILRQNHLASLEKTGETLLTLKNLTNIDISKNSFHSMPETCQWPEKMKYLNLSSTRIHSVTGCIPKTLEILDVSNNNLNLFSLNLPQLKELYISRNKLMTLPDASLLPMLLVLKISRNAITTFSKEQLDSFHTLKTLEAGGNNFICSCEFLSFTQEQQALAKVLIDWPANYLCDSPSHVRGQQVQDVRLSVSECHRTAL

Sequence of TLR4 (Homo sapiens) (O00206 24-631): as the sequence (O00206 24-631) above

MD2 (from UniProt Q9Y6Y9)
Kd (TLR4 (Homo sapiens)): 62.9 nM

HMGB1 (from UniProt P09429)
Kd (MD2 (Homo sapiens)): 8 nM
Kd (TLR4/MD2 (Homo sapiens)): 1500 nM

B1: Recombinant human MD2 (rhMD2), Glu17-Asn160 (natural protein, UniProt Q9Y6Y9 17-160, looked up)
chain: EAQKQYWVCNSSDASISYTYCDKMQYPISINVNPCIELKRSKGLLHIFYIPRRDLKQLYFNLYITVNTMNLPKRKEVICRGSDDDYSFCRALKGETVNTTISFSFKGIKFSKGKYKCVVEAISGSPEEMLFCLEFVILHQPNSN
Kd [1]: 302 nM
Kd [2]: 53.7 nM

B2
Kd [2]: 617 nM
Kd [3]: 239 nM
Kd [4]: 33.1 nM
Kd [5]: 258 nM
